# From patent US20230263906A1, “HIGH AFFINITY IL-2 RECEPTOR AGONISTS AND SYNTHETIC NANOCARRIER DOSE SPARING” (Selecta Biosciences, Inc., priority 2022, published 2023)
# B1: ovalbumin (protein, UniProt P01012 2-386, looked up)
# Ovalbumin: GSIGAASMEFCFDVFKELKVHHANENIFYCPIAIMSALAMVYLGAKDSTRTQINKVVRFDKLPGFGDSIEAQCGTSVNVHSSLRDILNQITKPNDVYSFSLASRLYAEERYPILPEYLQCVKELYRGGLEPINFQTAADQARELINSWVESQTNGIIRNVLQPSSVDSQTAMVLVNAIVFKGLWEKAFKDEDTQAMPFRVTEQESKPVQMMYQIGLFRVASMASEKMKILELPFASGTMSMLVLLPDEVSGLEQLESIINFEKLTEWTSSNVMEERKIKVYLPRMKMEEKYNLTSVLMAMGITDVFSSSANLSGISSAESLKISQAVHAAHAEINEAGREVVGSAEAGVDAASVSEEFRADHPFLFCIKHIATNAVLFFGRCVSP
# notes: model antigen
# System: Ovalbumin-specific OTII T cells
# Assay: Example 5: adoptive transfer of ovalbumin-specific OTII T cells, Foxp3 expression
# Type: in vivo, mice
# Conditions: OTII T cells adoptively transferred prior to treatment
# Method: However, expansion of antigen-specific Treg can be more desirable than expansion of total Treg. The ability of ImmTOR plus antigen combined with IL-2 mutein to induce and/or expand antigen-specific Treg was evaluated. Ovalbumin-specific OTII T cells were adoptively transferred into mice prior to treatment with ovalbumin and ImmTOR and/or IL-2 mutein.
molecule,measurement,value
B1,percentage of Foxp3+OTII cells,~6%
